Data reported in patent US20120171118A1, “TREATMENT OF MENINGEAL AND NEURAL DISEASES” (THE GENERAL HOSPITAL CORPORATION, priority 2009, published 2012).

Experiments:
[1] = systemically administered; cited from earlier work
[2] = neoplastic carcinoma patients; cited from earlier work
[3] = type: physicochemical
Source text: Based on the experimental data on CPT release from PHF-CPT, the action of the conjugate after intrathecal administration will be localized in the target compartment (leptomeningeal tissues contacting with CSF). The kinetics of CPT release includes two phases: (1) non-enzymatic release of a highly hydrophobic prodrug camptothecin succinimidoglycinate (CPT-SI), and (2) release of active CPT from CPT-SI (Scheme 6). […] Thus, it is expected that CPT-SI will be deposited in the leptomeningeal space and will redistribute only locally along cell membranes and other hydrophobic compartments. […] A similar distribution pattern in the meningeal compartment is expected, with CPT-SI penetration from CSF into the cancer cell formations through several cell layers.

[4] = type: in vitro ADME; settings: rat, plasma
Protocol: The mechanism of the second stage hydrolysis in vivo, which results in the active CPT release, may include spontaneous or enzymatic hydrolysis as well as, e.g., aminolysis. In vitro, the half-life of (N-succinamido)-glycyl linkage in the CPT prodrug (VI) in rat plasma was over 20 hours.

[5] = humans, cited from earlier work
[6] = PET imaging of 124I-labeled human recombinant enzymes after IV and IT administration; type: in vivo, rats
Protocol: Imaging was performed using MicroPET P4. Spatial resolution (full width at half maximum, FWHM) was studied using a line ^124I source (Ø=0.19 mm) in water. A 51×127 mm cylindrical phantom was used to evaluate the count-rate performance and coincidence detection. Studies in rats and cynomolgus monkeys were carried out using five human recombinant enzymes. The proteins were labeled with ^124I, at up to 5 mCi/mg.
Next, three human recombinant enzymes, idursulfase, arylsulfatase A, and sulfamidase were labeled with ^124I and administered at 1 and 10 mg/kg via two routes, IV and IT. Dynamic imaging data and multiple static images were acquired over 8 days, and processed to determine the principal PK parameters. FITC labeled sulfamidase was also utilized to investigate brain cryosections by photoimaging.

Question: Which “CSF level relative to the systemic level” value [1] does the source give for CN(Cc1cnc2nc(N)nc(N)c2n1)c1ccc(C(=O)N[C@@H](CCC(=O)O)C(=O)O)cc1 [methotrexate] here?
Answer: 1.7%

Question: Which clinical outcome [2] does the source give for CC[C@@]1(O)C(=O)OCc2c1cc1n(c2=O)Cc2cc3c(CN(C)C)c(O)ccc3nc2-1 [topotecan] here?
Answer: not promising

Question: What does the source list for “camptothecin succinimidoglycinate [CPT-SI]”?
Answer: solubility in water [3]: practically insoluble in water; half-life of (N-succinamido)-glycyl linkage [4]: over 20 hours

Question: What does the source list for “indium complex of diethylenetriaminepentaacetic acid [In-DTPA]”?
Answer: time to reach brain ventricles ([5]; after intralumbar injection): ca. 5 hours; half-life in CSF [5]: 13.5 ± 4.5 h

B1: sulfamidase: human recombinant enzyme labeled with 124I (protein, UniProt P51688 21-502, looked up)
N-sulphoglucosamine …: RPRNALLLLADDGGFESGAYNNSAIATPHLDALARRSLLFRNAFTSVSSCSPSRASLLTGLPQHQNGMYGLHQDVHHFNSFDKVRSLPLLLSQAGVRTGIIGKKHVGPETVYPFDFAYTEENGSVLQVGRNITRIKLLVRKFLQTQDDRPFFLYVAFHDPHRCGHSQPQYGTFCEKFGNGESGMGRIPDWTPQAYDPLDVLVPYFVPNTPAARADLAAQYTTVGRMDQGVGLVLQELRDAGVLNDTLVIFTSDNGIPFPSGRTNLYWPGTAEPLLVSSPEHPKRWGQVSEAYVSLLDLTPTILDWFSIPYPSYAIFGSKTIHLTGRSLLPALEAEPLWATVFGSQSHHEVTMSYPMRSVQHRHFRLVHNLNFKMPFPIDQDFYVSPTFQDLLNRTTAGQPTGWYKDLRHYYYRARWELYDRSRDPHETQNLATDPRFAQLLEMLRDQLAKWQWETHDPWVCAPDGVLEEKLSPQCQPLHNEL
modifications: 124I label
notes: human recombinant enzyme labeled with 124I
Question: Which “initial label content in the brain region” value (“initial label content” for short) ([6]; after IT administration, 124I label, PET) does the source give for B1 here?
Answer: 35 % of the injected dose/g

Question: What about the “initial label content” value ([6]; after IV administration, 124I label, PET) of the same molecule?
Answer: 0.05 % of the injected dose/g

B2: idursulfase: human recombinant enzyme labeled with 124I (protein, UniProt P22304 34-455; P22304 456-550, looked up)
Iduronate 2-sulfatase 42 kDa …: TDALNVLLIIVDDLRPSLGCYGDKLVRSPNIDQLASHSLLFQNAFAQQAVCAPSRVSFLTGRRPDTTRLYDFNSYWRVHAGNFSTIPQYFKENGYVTMSVGKVFHPGISSNHTDDSPYSWSFPPYHPSSEKYENTKTCRGPDGELHANLLCPVDVLDVPEGTLPDKQSTEQAIQLLEKMKTSASPFFLAVGYHKPHIPFRYPKEFQKLYPLENITLAPDPEVPDGLPPVAYNPWMDIRQREDVQALNISVPYGPIPVDFQRKIRQSYFASVSYLDTQVGRLLSALDDLQLANSTIIAFTSDHGWALGEHGEWAKYSNFDVATHVPLIFYVPGRTASLPEAGEKLFPYLDPFDSASQLMEPGRQSMDLVELVSLFPTLAGLAGLQVPPRCPVPSFHVELCREGKNLLKHFRFRDLEEDPYLPG
Iduronate 2-sulfatase 14 kDa …: NPRELIAYSQYPRPSDIPQWNSDKPSLKDIKIMGYSIRTIDYRYTVWVGFNPDEFLANFSDIHAGELYFVDSDPLQDHNMYNDSQGGDLFQLLMP
modifications: 124I label
notes: as for B1
Question: What does the source list for B2?
Answer: half-life of clearance from both the brain and spinal cord ([6]; rat, in vivo): ca. 7 h; initial label content in the brain region ([6]; rat, in vivo): 45 % of the injected dose/g; initial label content in the brain region ([6]; rat, in vivo, iv): 0.20 % of the injected dose/g

B3: arylsulfatase A: human recombinant enzyme labeled with 124I (protein, UniProt P15289 19-507, looked up)
Arylsulfatase A: RPPNIVLIFADDLGYGDLGCYGHPSSTTPNLDQLAAGGLRFTDFYVPVSLCTPSRAALLTGRLPVRMGMYPGVLVPSSRGGLPLEEVTVAEVLAARGYLTGMAGKWHLGVGPEGAFLPPHQGFHRFLGIPYSHDQGPCQNLTCFPPATPCDGGCDQGLVPIPLLANLSVEAQPPWLPGLEARYMAFAHDLMADAQRQDRPFFLYYASHHTHYPQFSGQSFAERSGRGPFGDSLMELDAAVGTLMTAIGDLGLLEETLVIFTADNGPETMRMSRGGCSGLLRCGKGTTYEGGVREPALAFWPGHIAPGVTHELASSLDLLPTLAALAGAPLPNVTLDGFDLSPLLLGTGKSPRQSLFFYPSYPDEVRGVFAVRTGKYKAHFFTQGSAHSDTTADPACHASSSLTAHEPPLLYDLSKDPGENYNLLGGVAGATPEVLQALKQLQLLKAQLDAAVTFGPSQVARGEDPALQICCHPGCTPRPACCHCPDPHA
modifications: 124I label
notes: as for B1
Question: Which “initial label content” value ([6]; rat, in vivo) does the source give for B3 here?
Answer: 70 % of the injected dose/g

Question: And the “initial label content” value ([6]; rat, in vivo, iv)?
Answer: 0.15 % of the injected dose/g
